This is an account of results in the supplement of paper PMC9112550, “Optimization of the antimicrobial peptide Bac7 by deep mutational scanning” (BMC Biology, 2022).
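Note: peptides expressed intracellularly from a pBAD plasmid library in pooled LB shake-flask culture, induced with 0.3% L-arabinose, DNA abundance read by NGS, three biological replicates, DESeq2 with apeglm shrinkage.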

The series has as its system Escherichia coli TOP10. The series is described as follows: shrunken log2 fold change of peptide-encoding DNA abundance (4.5 h post-induction vs induction); higher = less antimicrobial activity (less host growth inhibition). To be noted: time post-induction: 4.5 h; library: site-saturation at positions 5, 18, 19, 20.
In the case of RRIRRRPPRLPRPRPRPLTWPRP, the “shrunken log2 fold change” value was 0.845.
As to RRIRRRPPRLPRPRPRPLRIPRP, the “shrunken log2 fold change” value came out at 0.724.
With RRIRFRPPRLPRPRPRPKFVPRP the figure was -0.0222.
With RRIRSRPPRLPRPRPRPHIMPRP, the “shrunken log2 fold change” value is -0.393.
With RRIRSRPPRLPRPRPRPNMGPRP the figure was -0.351; with RRIRCRPPRLPRPRPRPWQKPRP, -0.0588; with RRIRMRPPRLPRPRPRPIYHPRP, -0.322.
Take RRIRYRPPRLPRPRPRPNTRPRP: the “shrunken log2 fold change” value is -0.703.
For RRIRGRPPRLPRPRPRPNIIPRP the value was 0.0628; for RRIRIRPPRLPRPRPRPCVEPRP, -0.0421; for RRIRFRPPRLPRPRPRPFLHPRP, -0.329.
With RRIRARPPRLPRPRPRPSVHPRP the figure was -0.0906.
For RRIRGRPPRLPRPRPRPEFLPRP the value was 1.01; for RRIRVRPPRLPRPRPRPMCWPRP, 0.00173; for RRIRVRPPRLPRPRPRPCQWPRP, -0.0851.
Take RRIRARPPRLPRPRPRPHCSPRP: the “shrunken log2 fold change” value was -0.131.
For RRIRRRPPRLPRPRPRPMYKPRP the value was -0.0524; for RRIRFRPPRLPRPRPRPIREPRP, -0.0362; for RRIRQRPPRLPRPRPRPKDDPRP, -0.0913.
With RRIRGRPPRLPRPRPRPFACPRP, the “shrunken log2 fold change” value is 0.39.
RRIRWRPPRLPRPRPRPCILPRP: the “shrunken log2 fold change” value was -0.39.
For RRIRVRPPRLPRPRPRPSNEPRP the value was -0.775; for RRIRNRPPRLPRPRPRPWQEPRP, -0.0629; for RRIRVRPPRLPRPRPRPSQFPRP, -0.952.
For RRIRFRPPRLPRPRPRPNAAPRP the value was 0.419.
Regarding RRIRPRPPRLPRPRPRPWKLPRP, the “shrunken log2 fold change” value was -0.0861.
With RRIRSRPPRLPRPRPRPQTPPRP the figure was 0.6.
For RRIRWRPPRLPRPRPRPRIYPRP the value was 0.068; for RRIRRRPPRLPRPRPRPCGTPRP, 0.363; for RRIRFRPPRLPRPRPRPRGFPRP, 0.27.
As to RRIRHRPPRLPRPRPRPVSQPRP, the “shrunken log2 fold change” value amounted to 0.114.
Take RRIRERPPRLPRPRPRPGASPRP: the “shrunken log2 fold change” value worked out at 0.075.
Consider RRIRDRPPRLPRPRPRPHDRPRP, for which the “shrunken log2 fold change” value was -0.00543.
With RRIRRRPPRLPRPRPRPQQTPRP the figure was -0.0146; with RRIRDRPPRLPRPRPRPPYFPRP, -0.0365; with RRIRNRPPRLPRPRPRPNGRPRP, -0.00776.
With RRIRKRPPRLPRPRPRPCGFPRP the figure was 0.279; with RRIRRRPPRLPRPRPRPNRNPRP, 0.0469; with RRIRARPPRLPRPRPRPFMMPRP, -0.105.
For RRIRKRPPRLPRPRPRPIDKPRP the value was 0.0797.
On to RRIRNRPPRLPRPRPRPTCMPRP, for which the “shrunken log2 fold change” value was 0.0558.
For RRIRQRPPRLPRPRPRPQTCPRP the value was 0.0348.
With RRIRNRPPRLPRPRPRPNDRPRP the figure was -0.218.
With RRIRNRPPRLPRPRPRPEYAPRP, the “shrunken log2 fold change” value was -0.175.
With RRIRPRPPRLPRPRPRPGSHPRP, the “shrunken log2 fold change” value is 0.142.
Turning to RRIRYRPPRLPRPRPRPSTPPRP, the “shrunken log2 fold change” value was -0.24.
Turning to RRIRGRPPRLPRPRPRPHHVPRP, the “shrunken log2 fold change” value is -0.00478.
With RRIRVRPPRLPRPRPRPFTQPRP the figure was 0.0152; with RRIRQRPPRLPRPRPRPKHQPRP, -0.386.
For RRIRFRPPRLPRPRPRPTQHPRP the value was 0.168; for RRIRHRPPRLPRPRPRPLSAPRP, 0.242; for RRIRGRPPRLPRPRPRPCSPPRP, 0.0454.
With RRIRERPPRLPRPRPRPLHLPRP the figure was -0.0385.
With RRIRRRPPRLPRPRPRPDAIPRP, the “shrunken log2 fold change” value was -0.0233.
For RRIRLRPPRLPRPRPRPAAQPRP the value was 1.25.
For RRIRHRPPRLPRPRPRPHQHPRP the value was -0.526; for RRIRIRPPRLPRPRPRPTLRPRP, 0.0906.
Regarding RRIRNRPPRLPRPRPRPMEGPRP, the “shrunken log2 fold change” value is -0.00992.
For RRIRNRPPRLPRPRPRPCLSPRP the value was -0.043; for RRIRSRPPRLPRPRPRPAIAPRP, -0.00626; for RRIRHRPPRLPRPRPRPVWSPRP, -0.103.
RRIRERPPRLPRPRPRPVLGPRP: the “shrunken log2 fold change” value was -0.101.
With RRIRYRPPRLPRPRPRPWDCPRP the figure was -0.00865; with RRIRMRPPRLPRPRPRPPRIPRP, 0.226; with RRIRNRPPRLPRPRPRPGMMPRP, -0.247.
RRIRFRPPRLPRPRPRPVEMPRP: the “shrunken log2 fold change” value was -0.327.
With RRIRGRPPRLPRPRPRPKCRPRP the figure was 0.299; with RRIRARPPRLPRPRPRPIFVPRP, 0.233; with RRIRRRPPRLPRPRPRPMMWPRP, 0.487.
In the case of RRIRMRPPRLPRPRPRPTSDPRP, the “shrunken log2 fold change” value came to 0.055.
With RRIRERPPRLPRPRPRPAHLPRP the figure was 0.301; with RRIRNRPPRLPRPRPRPWRWPRP, 0.0867.
Turning to RRIRARPPRLPRPRPRPWCVPRP, the “shrunken log2 fold change” value is 0.201.
For RRIRIRPPRLPRPRPRPSCKPRP the value was -0.122.
As for RRIRFRPPRLPRPRPRPVPLPRP, the “shrunken log2 fold change” value is -0.118.
For RRIRRRPPRLPRPRPRPPHSPRP the value was 0.916; for RRIRLRPPRLPRPRPRPKLWPRP, 0.296; for RRIRTRPPRLPRPRPRPQYQPRP, -0.502.
For RRIRERPPRLPRPRPRPTVRPRP the value was -0.00266.
Turning to RRIRWRPPRLPRPRPRPMINPRP, the “shrunken log2 fold change” value was -0.212.
As for RRIRCRPPRLPRPRPRPTTIPRP, the “shrunken log2 fold change” value is -0.492.
For RRIRQRPPRLPRPRPRPPLMPRP, the “shrunken log2 fold change” value turned out to be 0.179.
In the case of RRIRWRPPRLPRPRPRPTLMPRP, the “shrunken log2 fold change” value turned out to be 0.479.
With RRIRNRPPRLPRPRPRPNMEPRP the figure was -0.0369; with RRIRRRPPRLPRPRPRPGQAPRP, 0.0103; with RRIRNRPPRLPRPRPRPCFYPRP, -0.474.
For RRIRIRPPRLPRPRPRPRFFPRP the value was -0.123.
As for RRIRHRPPRLPRPRPRPQEIPRP, the “shrunken log2 fold change” value is -0.19.
Regarding RRIRYRPPRLPRPRPRPYSRPRP, the “shrunken log2 fold change” value is -0.01.
For RRIRIRPPRLPRPRPRPLLHPRP the value was -0.221; for RRIRERPPRLPRPRPRPWPRPRP, 0.223.
For RRIRFRPPRLPRPRPRPRAYPRP the value was -0.23; for RRIRLRPPRLPRPRPRPRIKPRP, -0.168; for RRIRLRPPRLPRPRPRPKIQPRP, -0.131.
For RRIRRRPPRLPRPRPRPWPHPRP the value was -0.0473; for RRIRCRPPRLPRPRPRPHTGPRP, -0.341.
With RRIRSRPPRLPRPRPRPCIDPRP, the “shrunken log2 fold change” value was -0.607.
As to RRIRMRPPRLPRPRPRPLMIPRP, the “shrunken log2 fold change” value was -0.159.
With RRIRWRPPRLPRPRPRPLYTPRP the figure was -0.24.
For RRIRPRPPRLPRPRPRPQQDPRP the value was -0.301; for RRIRLRPPRLPRPRPRPARWPRP, 0.284.
Regarding RRIRLRPPRLPRPRPRPKPRPRP, the “shrunken log2 fold change” value was found to be 0.729.
For RRIRHRPPRLPRPRPRPSVAPRP the value was -0.156.
With RRIRYRPPRLPRPRPRPQTDPRP the figure was -0.274.
For RRIRCRPPRLPRPRPRPGPVPRP the value was 0.239; for RRIRARPPRLPRPRPRPRDCPRP, 0.391; for RRIRHRPPRLPRPRPRPQCDPRP, -0.13.
As to RRIRPRPPRLPRPRPRPGMPPRP, the “shrunken log2 fold change” value is -0.074.
Turning to RRIRMRPPRLPRPRPRPGDIPRP, the “shrunken log2 fold change” value came out at 0.025.
For RRIRARPPRLPRPRPRPPWNPRP the value was 0.427; for RRIRQRPPRLPRPRPRPDVGPRP, -0.0428; for RRIRGRPPRLPRPRPRPDWDPRP, 0.596.
On to RRIRVRPPRLPRPRPRPDFMPRP, for which the “shrunken log2 fold change” value was -0.0875.
For RRIRERPPRLPRPRPRPSPSPRP the value was -0.269; for RRIRHRPPRLPRPRPRPPAEPRP, 0.0536.
For RRIRCRPPRLPRPRPRPNPYPRP the value was -0.44.
As to RRIRHRPPRLPRPRPRPQMNPRP, the “shrunken log2 fold change” value was -0.312.
For RRIRWRPPRLPRPRPRPEGPPRP the value was 0.438; for RRIRSRPPRLPRPRPRPSKLPRP, -0.398; for RRIRMRPPRLPRPRPRPCPIPRP, -0.404.
On to RRIRRRPPRLPRPRPRPASLPRP, for which the “shrunken log2 fold change” value was 0.338.
RRIRSRPPRLPRPRPRPWNGPRP: the “shrunken log2 fold change” value was -0.0136.
With RRIRRRPPRLPRPRPRPVKMPRP the figure was 0.101.
With RRIRIRPPRLPRPRPRPWWKPRP the figure was -0.102; with RRIRMRPPRLPRPRPRPGTRPRP, 0.675.
